Measurements as given in doi:10.1101/2024.03.03.583237 (bioRxiv, 2024).

Target: SARS-CoV-2 spike trimer (soluble S-trimer) (SARS-CoV-2 Wuhan-Hu-1 (NC_045512), UniProt P0DTC2)
Test: live-cell binding assay

B1: S2L20-CVR (scFv, V domains shown)
VH: EVQLVESGGGVVQPGGSLRLSCAASGFTFNSYGMHWVRQAPGKGLEWVAFIRYDGGNKYYADSVKGRFTISRDNSKNTLYLQMKSLRAEDTAVYYCANLKDSRYSGSYYDYWGQGTLVTVS
VL: not shown
binding result: binds
